# Test results from PMC3176505 (Biochemistry, 2009).
# Tests used:
# CCCCC1CCCC(=O)O1 = test: purified protein; details: pH 8.3
# CCCCCC1CCCC(=O)O1 = test: purified protein; details: pH 8.3
substance,measurement,setting,value
Dr0930 (Deinococcus radiodurans R1 = ATCC 13939 = DSM 20539),Km,CCCCC1CCCC(=O)O1,100 ± 20 µM
same,kcat/Km,CCCCC1CCCC(=O)O1,420000 ± 70000 M⁻¹ s⁻¹
same,Km,CCCCCC1CCCC(=O)O1,80 ± 10 µM
same,kcat/Km,CCCCCC1CCCC(=O)O1,200000 ± 20000 M⁻¹ s⁻¹
Dr0930 (Deinococcus radiodurans R1 = ATCC 13939 = DSM 20539; Y97F),Km,CCCCC1CCCC(=O)O1,200 ± 20 µM
same,kcat/Km,CCCCC1CCCC(=O)O1,1700 ± 100 M⁻¹ s⁻¹
Dr0930 (Deinococcus radiodurans R1 = ATCC 13939 = DSM 20539; Y28F),Km,CCCCC1CCCC(=O)O1,100 ± 20 µM
same,kcat/Km,CCCCC1CCCC(=O)O1,270000 ± 40000 M⁻¹ s⁻¹
Dr0930 (Deinococcus radiodurans R1 = ATCC 13939 = DSM 20539; Y98F),Km,CCCCC1CCCC(=O)O1,400 ± 20 µM
same,kcat/Km,CCCCC1CCCC(=O)O1,18000 ± 2000 M⁻¹ s⁻¹
